Test [1] deals with T1, HLA-A*02:01 (human).
T1 construct: monomers captured on streptavidin plates; also called MHC class I
Nature of the test: UV peptide exchange ELISA. In a few lines: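 Read-out is an ELISA on the UV-exchange reaction: monomers, diluted 100-fold, are captured on streptavidin and the β2m light chain is detected with 2 μg/ml HRP antibody and TMB at 450 nm.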

The target in test [2] is T2, HLA-A*02:01 (human).
T2 construct: Construct limits and biotin tag are not described
The test can be described thus: pMHC used for negative control stimulations, biotin-pMHC on streptavidin beads.

In test [3] the target is T2, HLA-A*02:01. The test can be described thus: pMHC complex coated on artificial APCs and used as fluorescent multimer A*02/SeqID No 663.
Test [4] has as its target T2, HLA-A*02:01. The test can be described thus: pMHC complex coated on artificial APCs and used as fluorescent multimer A*02/SeqID No 662.

Regarding FLLVGDLMAV, the peptide exchange yield in test [1] is 50 to 75%. For IMQDFPAEIFL, the peptide exchange yield in test [1] is not below 75%. For the molecule YLIPFTGIVGL, the peptide exchange yield in test [1] was 20 to 50%.

B1: DDX5-001 (YLLPAIVHI from DDX5) (peptide)
peptide: YLLPAIVHI
notes: Peptide of the negative control pMHC for the T-cell stimulations; also called 665
Turning to B1, the binding result in test [2] is on record as “binds”.

NLIGKIENV registered a peptide exchange yield in test [1] of 50 to 75%. Same read-out and setting: in the case of YILPTETIYV it was not below 75%. Same read-out and setting: the figure for ALPEAPAPLLPHIT is 20 to 50%. Turning to KIQEMQHFL (also called MMP12 peptide) [SeqID No 663 peptide (KIQEMQHFL)], the binding result in test [3] is listed as “binds”. Turning to TLLQIIETV, the peptide exchange yield in test [1] lay in the range of 50 to 75%.

KIQEILTQV (also called IGF2BP3 peptide) [SeqID No 662 peptide (KIQEILTQV)]: in test [4], the binding result is “binds”.

Values taken from US20170037110A1 (IMMATICS BIOTECHNOLOGIES, published 2017).
